Assay results published in PMC4275271, “Development and Characterization of a Novel Fusion Protein of a Mutated Granulocyte Colony-Stimulating Factor and Human Serum Albumin in Pichia pastoris” (PLoS ONE, 2014).
Residue numbers refer to the chain shown, from its start.

T1: recombinant human G-CSF receptor (rhG-CSFR), biotinylated (human, UniProt Q99062 25-627, biotin (biotinylated, site not stated))
T1 construct: human granulocyte colony-stimulating factor receptor
T1 sequence (looked up): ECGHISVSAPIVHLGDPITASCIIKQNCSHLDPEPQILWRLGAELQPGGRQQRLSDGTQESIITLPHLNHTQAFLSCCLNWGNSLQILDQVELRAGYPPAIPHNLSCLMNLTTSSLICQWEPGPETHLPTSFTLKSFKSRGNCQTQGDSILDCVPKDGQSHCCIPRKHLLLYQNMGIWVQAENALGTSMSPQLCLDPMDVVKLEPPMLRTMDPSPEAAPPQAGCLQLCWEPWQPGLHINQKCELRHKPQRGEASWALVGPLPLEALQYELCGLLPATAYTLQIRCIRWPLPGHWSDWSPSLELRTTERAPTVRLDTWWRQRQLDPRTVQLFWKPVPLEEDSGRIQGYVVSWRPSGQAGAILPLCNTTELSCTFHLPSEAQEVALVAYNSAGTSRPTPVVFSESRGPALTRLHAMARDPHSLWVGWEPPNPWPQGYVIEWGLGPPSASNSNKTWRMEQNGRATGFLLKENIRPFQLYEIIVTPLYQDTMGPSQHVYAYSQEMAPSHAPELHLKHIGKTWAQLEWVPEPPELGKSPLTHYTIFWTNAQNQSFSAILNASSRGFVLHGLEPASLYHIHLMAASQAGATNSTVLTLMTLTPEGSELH

B1: Human G-CSF mutant (mG-CSF) (ligand, UniProt P09919-2 31-204, looked up)
chain: APTYRASSLPQSFLLKSLEQVRKIQGDGAALQEKLCATYKLCHPEELVLLGHSLGIPWAPLSSCPSQALQLAGCLSQLHSGLFLYQGLLQALEGISPELGPTLDTLQLDVADFATTIWQQMEELGMAPALQPTQGAMPAFASAFQRRAGGVLVASHLQSFLEVSYRVLRHLAQP
notes: human granulocyte colony-stimulating factor with five substitutions; also called mutated G-CSF
B2: recombinant human G-CSF (rhG-CSF) standard (ligand, UniProt P09919-2 31-204, looked up)
chain: B1 chain with A1T, T3L, Y4G, R5P, S17C
notes: human granulocyte colony-stimulating factor, rhG-CSF standard of Amgen; Amgen's rhG-CSF is recalled to be the 174-residue mature form with an added N-terminal Met (filgrastim); also called recombinant hG-CSF standard; source: bought: Amgen, USA

Target: T1, recombinant human G-CSF receptor …
Assay: BLI; biotinylated rhG-CSFR (15 µg/ml) on Streptavidin High Binding biosensors, Octet-QK; HMG, rhG-CSF standard or mG-CSF in solution; global fitting
Details: both partners purified

Kd | koff | kon | Binder
1.2 nM | 1.94e-05 s⁻¹ | 16200 M⁻¹ s⁻¹ | B1
1.97 nM | 2.24e-05 s⁻¹ | 11400 M⁻¹ s⁻¹ | B2
